Experimental data from the supplement of paper PMC11865577.

Legend:
Experiment in all cases: pull-down binding Z-score (relative to library population); higher = stronger binding
TO-N3 (biotin conjugate) = conditions: RNA library: Library-2
Method in brief: (§1)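 Cy5- or Cy3-end-labelled RNA library (1 μg) was heat-folded in phosphate/NaCl/KCl buffer and incubated 60 min at 25 °C with streptavidin beads carrying 100 pmol biotin-conjugated small molecule. After three washes, bound RNA was eluted in hot SDS and hybridised 20 h at 55.5 °C to a DNA barcode microarray. Binding was scored by subtracting a beads-only control, averaging barcoded replicate probes after dropping highest and lowest, and converting to a Z-score against library mean and standard deviation.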

[1] = tested on: G-clamp-N3 (biotin conjugate); conditions: RNA library: Library-1 (pre-miRNA loops + repeats)
Method in brief: as §1

[2] = tested on: TO-N3-2 (biotin conjugate); conditions: RNA library: Library-2
Method in brief: as §1

[3] = tested on: TO-3-N3-2 (biotin conjugate); conditions: RNA library: Library-2
Method in brief: as §1

[4] = tested on: TO-3-N3 (biotin conjugate); conditions: RNA library: Library-2
Method in brief: as §1

Sequence | pull-down binding Z-score (TO-N3 (biotin conjugate)) | pull-down binding Z-score [1] | pull-down binding Z-score [2] | pull-down binding Z-score [3] | pull-down binding Z-score [4]
CAAUCAUGUAUAAUUAAAUUUGAUUG [hsa-mir-514a-1] | -0.511 | 0.528 | -1.18 | 0.0139 | -0.112
GCAUAAAAACAACUUUUGGGGGACAGGUAUGUUUUCUUGC [hsa-mir-5047] | 2.3 | 0.0757 | 0.797 | 2.38 | 2.96
UGGUCAGGCGGCU [hsa-mir-3917] | 0.0412 | 0.0721 | 0.442 | -0.061 | -0.142
GCAGCCUUGC [hsa-mir-4298] | 0.264 | 0.364 | 0.0238 | -0.244 | 0.177
UUCUAGUCCCUAUUAGACUAGAA [hsa-mir-5681a] | -1 | -0.692 | -1.08 | -0.506 | -0.543
GCUGCUGCCCCAGAGGCCCAGCAGGUGUCCAGAAC [hsa-mir-6750] | 1.18 | -0.884 | 1.93 | 0.49 | 0.55
CGUGCGCCAGUGGAG [hsa-mir-6089-2_6089-1] | 0.573 | -0.0599 | 0.982 | -0.139 | 0.0799
UGGUGGGGGCCGGGGCAGGCCCAGCGAAA [hsa-mir-648] | 2.27 | 1.1 | 1.94 | 1.37 | 1.96
GUAUACUGAGCUUAUGUAUGCAUCUGCAUAC [hsa-mir-5591] | 0.39 | 0.344 | 0.0714 | 0.0113 | 0.357
AGGUUCUGCUGGCUGAGAACCU [hsa-mir-3667] | -0.17 | 2.19 | 0.149 | -0.106 | -0.215
CUGAGCGGCUCCAUCCCCCGGCCUGCUCAU [hsa-mir-6729] | 1.14 | -1.11 | 1.81 | 0.224 | 0.85
GCGUCACGUGCACCCAAGUGACGC [hsa-mir-6786] | 0.688 | -0.196 | 0.796 | 0.171 | 0.576
UCCAGGGCUCCUGACACCUGGA [hsa-mir-6861] | -0.785 | -0.943 | -0.248 | -0.533 | -0.649
UAAGUGUCCUAGCACUUA [hsa-mir-374b] | -0.0395 | 0.214 | -0.647 | -0.524 | 0.251
UAUCUAUAUAUAUGUGUA [hsa-mir-3171] | -0.0908 | -0.471 | 0.835 | -0.0303 | -0.0511
GUCAUUUUUCUGUGACUGCACAUGGC [hsa-mir-3136] | -0.215 | -0.497 | -0.214 | -0.15 | -0.191
AAUCCCAGCACUUUGGGAG [hsa-mir-3929] | 0.0138 | 0.566 | 0.171 | -0.0338 | 0.0452
AGUCUCUGAAGAGAGCUGUGGACUGA [hsa-mir-6721] | 0.839 | 1.18 | 0.916 | 0.732 | 0.726
CAGUGAGCUAUGAUCAUGUCCCUG [hsa-mir-1254-2] | 0.105 | 0.526 | 0.362 | -0.1 | 0.0243
GCUGCAGGCAAAGCUGGGG [hsa-mir-711] | 0.901 | -0.426 | 1.07 | 0.123 | 0.431
GUGCACUUCAUUUACGAUGUAG [hsa-mir-1193] | 0.741 | -0.679 | 0.478 | 0.167 | 0.515
AUGGCAUUUAAGGAUUGCUAU [hsa-mir-4477a] | -0.893 | 0.671 | -0.675 | -0.473 | -0.716
UCACAAUUGCGCUACAGAACUGUUGA [hsa-mir-203b] | 1.12 | 0.254 | 0.308 | 0.314 | 0.859
UCUUCCCAAAGUUGAGAAAA [hsa-mir-320d-1] | -0.746 | -1.32 | -0.758 | -0.407 | -0.611
AUUCUGGCUAGGUGAUCAUCAGAAU [hsa-mir-5583-1] | -1.07 | 0.902 | -0.726 | -0.406 | -0.794

Sequence | pull-down binding Z-score (TO-N3 (biotin conjugate)) | pull-down binding Z-score [1] | pull-down binding Z-score [2] | pull-down binding Z-score [3] | pull-down binding Z-score [4]
GCGGGAGCCAGGCCGC [hsa-mir-3185] | -0.0208 | 3.26 | 0.896 | 0.0586 | -0.123
GUCAGGUGAUGGUGAUAAGGUCAAGGCCUG [hsa-mir-6853] | 0.388 | 0.547 | 1.03 | -0.0266 | -0.0611
GCCUCCUGGAUCUCUAGGUCUCAGGGC [hsa-mir-6744] | -0.272 | -0.189 | 0.118 | -0.302 | -0.282
GAAGCUGUAAGACACAGCUAAGCUUU [hsa-mir-30d] | -0.169 | -0.32 | 0.0477 | -0.00751 | -0.376
GCUGCCCCUUUGCUCUCUGGGGUAGC [hsa-mir-3614] | 0.258 | 0.721 | -0.388 | 0.0223 | 0.491
GCAUUUUAUCUAAGAUACACACAAAGCAAAUGC [hsa-mir-4439] | 0.118 | -1.12 | -0.81 | 0.179 | 0.441
UUUUGAAAGUAACUUGGCGAAA [hsa-mir-548ad] | -0.0602 | 1.69 | -0.299 | -0.118 | -0.179
GUGAGGUAUUUUAGUAACAUCAC [hsa-mir-125b-2] | -0.969 | 0.629 | -0.794 | -0.536 | -0.818
UUUGCUGUUGAACGUAGUGGUAA [hsa-mir-548ar] | 0.407 | -0.679 | 0.387 | 0.0962 | 0.181
AUUAUGUUUUGGACAUAGAAACAUAAC [hsa-mir-5688] | -0.981 | -0.841 | -0.665 | -0.377 | -0.878
UAAUAACUGACAAACAGACAAUUG [hsa-mir-4774] | -0.376 | -0.873 | -0.303 | -0.145 | -0.343
CCCCCAAUUAAAGUAGAUUGGGGG [hsa-mir-3153] | -0.725 | 0.917 | -1.29 | -0.696 | -0.415
GAAGCUGUAAGGUGUUCAGAGGAGCUUU [hsa-mir-30e] | 0.977 | 2.63 | 1.1 | 0.908 | 0.57
ACAUGAAAAUAAAAUGUAAAUUAUUUUAUUUCUAUCA [hsa-mir-3671] | 0.652 | -0.346 | -0.163 | 0.294 | 0.665
ACAAUUAUGAAAGAAAAGAAAUUGU [hsa-mir-3611] | -0.636 | 0.163 | -0.566 | 0.327 | -0.386
CUUUGUGAUUUUAUGAGAACAAAG [hsa-mir-3173] | -1.22 | 0.801 | -1.27 | -0.486 | -0.938
GCCAUGGAAAGUAAUGGC [hsa-mir-548ax] | -0.269 | 0.538 | 0.319 | -0.112 | -0.0453
UUGAUUCAGUAAAACAUUCAA [hsa-mir-891b] | -0.695 | -0.189 | -0.902 | -0.0671 | -0.376
AAGUGCCGUCCUCAUGAGCCCCU [hsa-mir-6769b] | 0.59 | -0.873 | 0.802 | 0.181 | 0.296
GAGAUGUGAUCCUGCCACAUCUC [hsa-mir-1304] | -0.261 | 0.421 | -0.363 | -0.00394 | -0.09
AUGGUUUAGAGUUACACCCUGGGAGUUAACUGU [hsa-let-7c] | 0.437 | -0.228 | 0.0342 | 0.565 | 0.351
CUCACGUGUGCCUGCCUGUGAG [hsa-mir-339] | -0.555 | -0.747 | 1.55 | -0.521 | -1.01
GGGUGGGCGGGGGCGGCCGGUGGGAACCCCGCCCCGCCCCGCGCCCGCACUCACCC [hsa-mir-7108] | 5.22 | 0.489 | 4.08 | 6.86 | 6.31
GUGAGAGAUGCUUCUAGAUCCAGGAGGCAGACCUCAA [hsa-mir-4325] | 0.822 | -0.658 | 0.879 | 0.123 | 0.524
UGCUAUUACUUGUAUUUAUUUGUAAUGCA [hsa-mir-548ab] | -1.33 | -0.547 | -1.59 | -0.88 | -0.524

Sequence | pull-down binding Z-score (TO-N3 (biotin conjugate)) | pull-down binding Z-score [1] | pull-down binding Z-score [2] | pull-down binding Z-score [3] | pull-down binding Z-score [4]
CUUGAUUUAAUGUCUAUACAAUUAAG [hsa-mir-124-3] | -0.159 | -0.412 | -0.45 | -0.0577 | -0.0185
GGCCAUCUGGCC [hsa-mir-4252] | -0.667 | 0.63 | -1.01 | -0.435 | -0.403
CAGGCCAGGGGCAGACAGUGGACAGAGAACAGUGCCCAAGACCACUG [hsa-mir-378e] | 1.27 | 1.13 | 1.73 | 0.736 | 0.426
CUCUGUAGUUUUCUUAUAGUG [hsa-mir-644a] | -0.566 | -0.255 | -0.669 | -0.532 | -0.635
CAAGUUAUCACUGAGCGACUUC [hsa-mir-4664] | -0.349 | -1.2 | -0.296 | -0.235 | -0.47
GAUGGAGGAAUCACAUGAAUUCAUC [hsa-mir-2115] | -0.627 | 0.704 | -0.351 | -0.362 | -0.415
UAUUUUGUUAUUCUGGUCACAGAAUGACCUAGUA [hsa-mir-630] | -0.308 | -1.22 | -1.11 | -0.134 | 0.141
GUCUGCCAAGGUUUUGGCAGAC [hsa-mir-3913-2] | -0.992 | 0.558 | -1.2 | -0.539 | -0.58
UGGGUUGAACUGUGUGGACAAGCUCA [hsa-mir-181b-1] | 0.366 | -0.166 | 0.631 | -0.042 | -0.111
GAGAACUCACGGUGCCUGUGGUUCGA [hsa-mir-3125] | 0.312 | -0.479 | 1.49 | -0.203 | -0.41
AUCAGUUCUCAUUUUACACACUGGC [hsa-mir-24-1] | -0.54 | 0.0425 | -0.282 | -0.0568 | -0.563
GCUGGAUUUCCCAGCUUGACUCUAAC [hsa-mir-200a] | -0.337 | -0.177 | -0.215 | -0.242 | -0.14
GUGGAGGGUGGUGCCGCCGGGGCCGGGCGCUGUUUCAGCUCGCUUCUCCCCCCAC [hsa-mir-1224] | 2.71 | 0.608 | 2.36 | 1.31 | 2.06
UUCAUUUUAUUUAUGAUGAG [hsa-mir-496] | -1.2 | 1.12 | -1.33 | -0.288 | -0.959
GAAUUCGCUUUAUUUAUGUUGAAUC [hsa-mir-377] | -0.944 | -0.856 | -0.874 | -0.33 | -0.514
UCGCCUAGGGCUCUGAGCAGGGCA [hsa-mir-211] | 1.72 | 1.4 | 1.47 | 0.463 | 1.36
AGGGCCUUCUGAGCCCAGGUCCG [hsa-mir-6716] | 0.886 | 0.286 | 1.46 | 0.018 | 0.611
GUCCCAAUACAUGUGGGCC [hsa-mir-586] | -0.22 | -0.0916 | -0.294 | -0.158 | -0.000511
CAUUAACGUGGACCAGACAAUAUUAAUG [hsa-mir-4491] | -0.0907 | -1.14 | -0.0295 | -0.12 | -0.339
UCUGCUUUGAUGAAAUAAAGCAGA [hsa-mir-4773-2] | -0.206 | -0.541 | -1.05 | -0.423 | -0.145
GAGCCCUUGCACACCACCAGCCUC [hsa-mir-6845] | 0.375 | -1.73 | 0.822 | 0.134 | -0.0477
AUUAGACAGAAAAAAGUUAGACACAAAAAAUUGUGUCUAAU [hsa-mir-4759] | 0.136 | -0.0386 | -0.525 | 0.561 | 0.284
GACAUGCUCUGACUCCCCUGAUGUC [hsa-mir-6852] | 0.286 | 0.588 | 1.18 | 0.244 | -0.0796
CUCAUUGUUGAAUGGAAUGAGAU [hsa-mir-3145] | -0.571 | 2.58 | 0.348 | -0.319 | -0.527
AAAUCCGUGUUUGGACGCUUCUGGUA [hsa-mir-3936] | 0.923 | -0.453 | 0.681 | 0.653 | 0.678
